In patent publication US20190270817A1 (Amgen, published 2019):

What follows are binders tested against T1, cynomolgus monkey IL-21R, recombinant soluble (FLAG-His or Fc, not stated which) (cynomolgus monkey, UniProt G7Q0S8 41-253) (assay: ForteBio Octet).
T1 construct: also called IL-21R Cy

Kd [nM]	Binder
> 300	A-2-006 (22D4.006) x IL-21 (R5A, R76E) homodimer fusion (other, not shown: a dimerising Fc or GST) heavy: EVQLVESGGSVVRPGGSLRLSCAASGFTVDDYSMSWVRQVPGKGLEWVSGINWNGGRTRYADAVKGRFTISRDSAKNSLYLQMNSLRAEDTALYYCAREFNNFESNWFDPWGQGTLVTVSSQGQDAHMIRMRQLIDIVDQLKNYVNDLVPEFLPAPEDVETNCEWSAFSCFQKAQLKSANTGNNERIINVSIKKLKEKPPSTNAGRRQKHRLTCPSCDSYEKKPPKEFLERFKSLLQKMIHQHLSSRTHGSEDS light: SYELTQPPSVSVSPGQTARITCSGDALPKKYAYWYQQKPGQAPVLVISEDAKRPSGIPERFSGSSSGTMATLTISGAQVEDEADYYCYSTDASGNHRVFGGGTKLTVLGQPKAAPSVTLFPPSSEELQANKATLVCLISDFYPGAVTVAWKADSSPVKAGVETTTPSKQSNNKYAASSYLSLTPEQWKSHRSYSCQVTHEGSTVEKTVAPTECS
> 300	A-2-006 (22D4.006) x IL-21 (R5E, R76A) homodimer fusion (other, not shown: a dimerising Fc or GST) heavy: EVQLVESGGSVVRPGGSLRLSCAASGFTVDDYSMSWVRQVPGKGLEWVSGINWNGGRTRYADAVKGRFTISRDSAKNSLYLQMNSLRAEDTALYYCAREFNNFESNWFDPWGQGTLVTVSSQGQDEHMIRMRQLIDIVDQLKNYVNDLVPEFLPAPEDVETNCEWSAFSCFQKAQLKSANTGNNERIINVSIKKLKAKPPSTNAGRRQKHRLTCPSCDSYEKKPPKEFLERFKSLLQKMIHQHLSSRTHGSEDS light: SYELTQPPSVSVSPGQTARITCSGDALPKKYAYWYQQKPGQAPVLVISEDAKRPSGIPERFSGSSSGTMATLTISGAQVEDEADYYCYSTDASGNHRVFGGGTKLTVLGQPKAAPSVTLFPPSSEELQANKATLVCLISDFYPGAVTVAWKADSSPVKAGVETTTPSKQSNNKYAASSYLSLTPEQWKSHRSYSCQVTHEGSTVEKTVAPTECS
> 300	A-2-006 (22D4.006) x IL-21 (R9E, R76A) homodimer fusion (other, not shown: a dimerising Fc or GST) heavy: EVQLVESGGSVVRPGGSLRLSCAASGFTVDDYSMSWVRQVPGKGLEWVSGINWNGGRTRYADAVKGRFTISRDSAKNSLYLQMNSLRAEDTALYYCAREFNNFESNWFDPWGQGTLVTVSSQGQDRHMIEMRQLIDIVDQLKNYVNDLVPEFLPAPEDVETNCEWSAFSCFQKAQLKSANTGNNERIINVSIKKLKAKPPSTNAGRRQKHRLTCPSCDSYEKKPPKEFLERFKSLLQKMIHQHLSSRTHGSEDS light: SYELTQPPSVSVSPGQTARITCSGDALPKKYAYWYQQKPGQAPVLVISEDAKRPSGIPERFSGSSSGTMATLTISGAQVEDEADYYCYSTDASGNHRVFGGGTKLTVLGQPKAAPSVTLFPPSSEELQANKATLVCLISDFYPGAVTVAWKADSSPVKAGVETTTPSKQSNNKYAASSYLSLTPEQWKSHRSYSCQVTHEGSTVEKTVAPTECS
> 300	A-2-006 (22D4.006) x IL-21 (R5Q, R76E) homodimer fusion (other, not shown: a dimerising Fc or GST) heavy: EVQLVESGGSVVRPGGSLRLSCAASGFTVDDYSMSWVRQVPGKGLEWVSGINWNGGRTRYADAVKGRFTISRDSAKNSLYLQMNSLRAEDTALYYCAREFNNFESNWFDPWGQGTLVTVSSQGQDQHMIRMRQLIDIVDQLKNYVNDLVPEFLPAPEDVETNCEWSAFSCFQKAQLKSANTGNNERIINVSIKKLKEKPPSTNAGRRQKHRLTCPSCDSYEKKPPKEFLERFKSLLQKMIHQHLSSRTHGSEDS light: SYELTQPPSVSVSPGQTARITCSGDALPKKYAYWYQQKPGQAPVLVISEDAKRPSGIPERFSGSSSGTMATLTISGAQVEDEADYYCYSTDASGNHRVFGGGTKLTVLGQPKAAPSVTLFPPSSEELQANKATLVCLISDFYPGAVTVAWKADSSPVKAGVETTTPSKQSNNKYAASSYLSLTPEQWKSHRSYSCQVTHEGSTVEKTVAPTECS
> 300	A-1-003 (20A2.003) x IL-21 (R5A, R76E) homodimer fusion (other, not shown: a dimerising Fc or GST) heavy: not shown light: SYELTQPPSVSVSPGQTASITCSGDKLGDKYASWYQQKPGQSPVLVIYQDRKRPSGIPERFSGSNSGNTATLTISGTQAMDEADYYCQAFESSTEVFGGGTKLTVLGQPKAAPSVTLFPPSSEELQANKATLVCLISDFYPGAVTVAWKADSSPVKAGVETTTPSKQSNNKYAASSYLSLTPEQWKSHRSYSCQVTHEGSTVEKTVAPTECS
> 300	A-1-003 (20A2.003) x IL-21 (R5Q, R76E) homodimer fusion (other, not shown: a dimerising Fc or GST) heavy: not shown light: SYELTQPPSVSVSPGQTASITCSGDKLGDKYASWYQQKPGQSPVLVIYQDRKRPSGIPERFSGSNSGNTATLTISGTQAMDEADYYCQAFESSTEVFGGGTKLTVLGQPKAAPSVTLFPPSSEELQANKATLVCLISDFYPGAVTVAWKADSSPVKAGVETTTPSKQSNNKYAASSYLSLTPEQWKSHRSYSCQVTHEGSTVEKTVAPTECS
> 300	A-1-003 (20A2.003) x IL-21 (R9E, R76A) homodimer fusion (other, not shown: a dimerising Fc or GST) heavy: not shown light: SYELTQPPSVSVSPGQTASITCSGDKLGDKYASWYQQKPGQSPVLVIYQDRKRPSGIPERFSGSNSGNTATLTISGTQAMDEADYYCQAFESSTEVFGGGTKLTVLGQPKAAPSVTLFPPSSEELQANKATLVCLISDFYPGAVTVAWKADSSPVKAGVETTTPSKQSNNKYAASSYLSLTPEQWKSHRSYSCQVTHEGSTVEKTVAPTECS
> 300	A-1-003 (20A2.003) x IL-21 (R5E, R76A) homodimer fusion (other, not shown: a dimerising Fc or GST) heavy: not shown light: SYELTQPPSVSVSPGQTASITCSGDKLGDKYASWYQQKPGQSPVLVIYQDRKRPSGIPERFSGSNSGNTATLTISGTQAMDEADYYCQAFESSTEVFGGGTKLTVLGQPKAAPSVTLFPPSSEELQANKATLVCLISDFYPGAVTVAWKADSSPVKAGVETTTPSKQSNNKYAASSYLSLTPEQWKSHRSYSCQVTHEGSTVEKTVAPTECS
> 300	A-3-009 (20C1.009) x IL-21 (R5Q, R76E) homodimer fusion (other, not shown: a dimerising Fc or GST) heavy: EVQLLESGGGLVQPGGSLRLSCAASGFTFSSYDMSWVRQAPGKGLEWVSLISGGGSQTYYAESVKGRFTISRDNSKNTLYLQMNSLRAEDTAVYFCASPSGHYFYAMDVWGQGTTVTVSSQGQDQHMIRMRQLIDIVDQLKNYVNDLVPEFLPAPEDVETNCEWSAFSCFQKAQLKSANTGNNERIINVSIKKLKEKPPSTNAGRRQKHRLTCPSCDSYEKKPPKEFLERFKSLLQKMIHQHLSSRTHGSEDS light: DIQMTQSPSSVSASVGDRVTITCRASQGISNWLAWYQQKPGKAPKLLIFAASSLQSGVPSRFSGSGSGTDFTLTISSLQPEDFATYYCQQAESFPHTFGGGTKVEIKRTVAAPSVFIFPPSDEQLKSGTASVVCLLNNFYPREAKVQWKVDNALQSGNSQESVTEQDSKDSTYSLSSTLTLSKADYEKHKVYACEVTHQGLSSPVTKSFNRGEC
> 300	A-3-009 (20C1.009) x IL-21 (R9E, R76A) homodimer fusion (other, not shown: a dimerising Fc or GST) heavy: EVQLLESGGGLVQPGGSLRLSCAASGFTFSSYDMSWVRQAPGKGLEWVSLISGGGSQTYYAESVKGRFTISRDNSKNTLYLQMNSLRAEDTAVYFCASPSGHYFYAMDVWGQGTTVTVSSQGQDRHMIEMRQLIDIVDQLKNYVNDLVPEFLPAPEDVETNCEWSAFSCFQKAQLKSANTGNNERIINVSIKKLKAKPPSTNAGRRQKHRLTCPSCDSYEKKPPKEFLERFKSLLQKMIHQHLSSRTHGSEDS light: DIQMTQSPSSVSASVGDRVTITCRASQGISNWLAWYQQKPGKAPKLLIFAASSLQSGVPSRFSGSGSGTDFTLTISSLQPEDFATYYCQQAESFPHTFGGGTKVEIKRTVAAPSVFIFPPSDEQLKSGTASVVCLLNNFYPREAKVQWKVDNALQSGNSQESVTEQDSKDSTYSLSSTLTLSKADYEKHKVYACEVTHQGLSSPVTKSFNRGEC
> 300	A-4-006 (20C1.006) x IL-21 (R5A, R76E) homodimer fusion (other, not shown: a dimerising Fc or GST) heavy: EVQLLESGGGLVQPGGSLRLSCAASGFTFSSYDMSWVRQAPGKGLEWVSLISGGGSNTYYAESVKGRFTISRDNSKNTLYLQMNSLRAEDTAVYFCASPSGHYFYAMDVWGQGTTVTVSSQGQDAHMIRMRQLIDIVDQLKNYVNDLVPEFLPAPEDVETNCEWSAFSCFQKAQLKSANTGNNERIINVSIKKLKEKPPSTNAGRRQKHRLTCPSCDSYEKKPPKEFLERFKSLLQKMIHQHLSSRTHGSEDS light: DIQMTQSPSSVSASVGDRVTITCRASQGISNWLAWYQQKPGKAPKLLIFAASSLQSGVPSRFSGSGSGTDFTLTISSLQPEDFATYYCQQAESFPHTFGGGTKVEIKRTVAAPSVFIFPPSDEQLKSGTASVVCLLNNFYPREAKVQWKVDNALQSGNSQESVTEQDSKDSTYSLSSTLTLSKADYEKHKVYACEVTHQGLSSPVTKSFNRGEC
> 300	A-3-009 (20C1.009) x IL-21 (R5E, R76A) homodimer fusion (other, not shown: a dimerising Fc or GST) heavy: EVQLLESGGGLVQPGGSLRLSCAASGFTFSSYDMSWVRQAPGKGLEWVSLISGGGSQTYYAESVKGRFTISRDNSKNTLYLQMNSLRAEDTAVYFCASPSGHYFYAMDVWGQGTTVTVSSQGQDEHMIRMRQLIDIVDQLKNYVNDLVPEFLPAPEDVETNCEWSAFSCFQKAQLKSANTGNNERIINVSIKKLKAKPPSTNAGRRQKHRLTCPSCDSYEKKPPKEFLERFKSLLQKMIHQHLSSRTHGSEDS light: DIQMTQSPSSVSASVGDRVTITCRASQGISNWLAWYQQKPGKAPKLLIFAASSLQSGVPSRFSGSGSGTDFTLTISSLQPEDFATYYCQQAESFPHTFGGGTKVEIKRTVAAPSVFIFPPSDEQLKSGTASVVCLLNNFYPREAKVQWKVDNALQSGNSQESVTEQDSKDSTYSLSSTLTLSKADYEKHKVYACEVTHQGLSSPVTKSFNRGEC
